How the values were obtained:
[1] = molecular target: PsiD R135A/Q136A (Psilocybe cubensis) (UniProt P0DPA6); assay: SEC
[2] = molecular target: the molecule itself; assay: crystal structure
[3] = molecular target: the molecule itself; assay: crystal structure; remark: listed apart in the source
[4] = molecular target: the molecule itself; assay: SEC

PsiD R135A/Q136A (from UniProt P0DPA6 1-402) (enzyme)
stoichiometry N [1]: 2

B1: L-tryptophan decarboxylase PsiD, full-length (1–439), wildtype, self-cleaved mature enzyme (enzyme, Psilocybe cubensis)
chain 1: MQVIPACNSAAIRSLCPTPESLRNMGWLSVSDAVYSEFIGELATRASNRNYSNEFGLMQPIQEFKAFIESDPVVHQEFIDMFEGIQDSPRNYQELCNMFNDIFRKAPVYGDLGPPVYMIMAKLMNTRAGFSAFTRQRLNLHFKKLFDTWGLFLSSKDSRNVLVADQFDDRHCGWLNERALSAMVKHYNGRAFDEVFLCDKNAPYYGFNSYDDFFNRRFRNRDIDRPVVGGVNNTTLISAACESLSYNVSYDVQSLDTLVFKGETYSLKHLLNNDPFTPQFEHGSILQGFLNVTAYHRWHAPVNGTIVKIINVPGTYFAQAPSTIGDPIPDNDYDPPPYLKSLVYFSNIAARQIMFIEADNKEIGLIFLVFIGMTEISTCEATVSEGQHVNRGDDLGMFHFGG
chain 2: SSFALGLRKDCRAEIVEKFTEPGTVIRINEVVAALKA
modifications: pyruvoyl prosthetic group at 403 (Pvl403, formed from Ser403)
stoichiometry N [2]: 2

B2: PsiD (50–439), self-cleaved, co-crystallised with L-tryptophan (domain or fragment, Psilocybe cubensis)
chain 1: NYSNEFGLMQPIQEFKAFIESDPVVHQEFIDMFEGIQDSPRNYQELCNMFNDIFRKAPVYGDLGPPVYMIMAKLMNTRAGFSAFTRQRLNLHFKKLFDTWGLFLSSKDSRNVLVADQFDDRHCGWLNERALSAMVKHYNGRAFDEVFLCDKNAPYYGFNSYDDFFNRRFRNRDIDRPVVGGVNNTTLISAACESLSYNVSYDVQSLDTLVFKGETYSLKHLLNNDPFTPQFEHGSILQGFLNVTAYHRWHAPVNGTIVKIINVPGTYFAQAPSTIGDPIPDNDYDPPPYLKSLVYFSNIAARQIMFIEADNKEIGLIFLVFIGMTEISTCEATVSEGQHVNRGDDLGMFHFGG
chain 2: B1 chain 2
modifications: pyruvoyl prosthetic group at 403 (Pvl403, formed from Ser403)
stoichiometry N [3]: 2

B3: PsiD (1–439) S403A (enzyme, Psilocybe cubensis, UniProt P0DPA6 1-439, looked up)
chain: MQVIPACNSAAIRSLCPTPESLRNMGWLSVSDAVYSEFIGELATRASNRNYSNEFGLMQPIQEFKAFIESDPVVHQEFIDMFEGIQDSPRNYQELCNMFNDIFRKAPVYGDLGPPVYMIMAKLMNTRAGFSAFTRQRLNLHFKKLFDTWGLFLSSKDSRNVLVADQFDDRHCGWLNERALSAMVKHYNGRAFDEVFLCDKNAPYYGFNSYDDFFNRRFRNRDIDRPVVGGVNNTTLISAACESLSYNVSYDVQSLDTLVFKGETYSLKHLLNNDPFTPQFEHGSILQGFLNVTAYHRWHAPVNGTIVKIINVPGTYFAQAPSTIGDPIPDNDYDPPPYLKSLVYFSNIAARQIMFIEADNKEIGLIFLVFIGMTEISTCEATVSEGQHVNRGDDLGMFHFGGASFALGLRKDCRAEIVEKFTEPGTVIRINEVVAALKA
stoichiometry N [4]: 2

From publication PMC11929908 (Nature Communications, 2025)
